Where a chain is given by its changes, count along the chain named.
T1: hFcgRIIb (human, UniProt P31994 43-217)
T1 construct: extracellular domain; also called human FcγRIIb
T1 sequence (looked up): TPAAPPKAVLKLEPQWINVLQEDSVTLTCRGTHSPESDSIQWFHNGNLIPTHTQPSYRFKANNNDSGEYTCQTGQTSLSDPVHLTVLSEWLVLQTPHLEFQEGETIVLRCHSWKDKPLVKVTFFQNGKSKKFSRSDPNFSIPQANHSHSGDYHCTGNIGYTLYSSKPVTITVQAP

T2: hFcgRIIaH (human, UniProt P12318 34-217)
T2 construct: extracellular domain; also called human FcγRIIa type H (H131)
T2 sequence (looked up): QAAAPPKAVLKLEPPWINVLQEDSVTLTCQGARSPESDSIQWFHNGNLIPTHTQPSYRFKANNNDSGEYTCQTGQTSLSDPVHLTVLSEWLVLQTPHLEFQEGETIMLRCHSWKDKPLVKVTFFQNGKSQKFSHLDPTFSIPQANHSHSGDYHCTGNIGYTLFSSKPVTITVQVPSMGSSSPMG

T3: hFcgRIIaR (human, UniProt P12318 34-217)
T3 construct: extracellular domain; also called human FcγRIIa type R (R131)
T3 sequence (looked up): T2 sequence (looked up) with H134R

B1: A375-SCF039/B167-Lamlib (antibody, human IgG1, lambda)
heavy: EVQLVESGGGLVKPGGSLRLSCAASGFTFSTFTMNWVRQAPGKGLEWVSSISSKSTYIEYADSFKVRFTISRDNAKNSLYLQMNSLRAEDTAVYYCARYGAKNFLNWVFDYWGQGTLVTVSSASTKGPSVFPLAPSSKSTSGGTAALGCLVKDYFPEPVTVSWNSGALTSGVHTFPAVLQSSGLYSLSSVVTVPSSSLGTQTYICNVNHKPSNTKVDKKVEPKSCDKTHTCPPCPAPELWNGPSVFLFPPKPKDTLMISRTPEVTCVVVDVSDEDPEVKFNWYVDGVEVHNAKTKPREELYNSTYRVVSVLTVLHQDWLNGKEYKCKVSNTALPKPIEKTISKAKGQRREPQVYTLPPSREEMTKNQVSLTCLVKGFYPSDIAVEWESNGQPENNYKTTPPVLDSDGSFFLYSKLTVDKSRWQQGNVFSCSVMHEALHNHYTQKSLSLSP
light: QSALTQPPSASGSPGQTVTISCTGTRYDVGYYEYVSWYQQHPGKAPKLMIYETSKRLSGVPDRFSGSKSGNTASLTVSGLQAEDEADYYCSSYRYEHQVSFGGGTKLTVLGQPKAAPSVTLFPPSSEELQANKATLVCLISDFYPGAVTVAWKADSSPVKAGVETTTPSKQSNNKYAASSYLSLTPEQWKSHRSYSCQVTHEGSTVEKTVAPTECS
B2: A375-SCF056aPh/B167-Lamlib (antibody, human IgG1, lambda)
heavy: B1 heavy with K219R, L300Q, Q316R, T331K, R348P
light: B1 light
notes: copies: 2 + 2
B3: A375-SCF043aPh/B167-Lamlib (antibody, human IgG1, lambda)
heavy: B1 heavy with K219R, L300Q, T331K, D418K
light: B1 light
B4: A375-SCF041a/B167-Lamlib (antibody, human IgG1, lambda)
heavy: B1 heavy with K219R, W240L, L300Q, T331K
light: B1 light
B5: A375-SCF041aPh/B167-Lamlib (antibody, human IgG1, lambda)
heavy: B1 heavy with K219R, L300Q, T331K
light: B1 light
B6: A375-SCF056a/B167-Lamlib (antibody, human IgG1, lambda)
heavy: B1 heavy with K219R, W240L, L300Q, Q316R, T331K, R348P
light: B1 light
notes: copies: 2 + 2
B7: A375-SCF042a/B167-Lamlib (antibody, human IgG1, lambda)
heavy: B1 heavy with K219R, W240L, L300Q, T331K, R348P, D418K
light: B1 light
notes: copies: 2 + 2
B8: A375-SCF039a/B167-Lamlib (antibody, human IgG1, lambda)
heavy: B1 heavy with K219R
light: B1 light
B9: A375-SCF043a/B167-Lamlib (antibody, human IgG1, lambda)
heavy: B1 heavy with K219R, W240L, L300Q, T331K, D418K
light: B1 light
B10: A375-SCF040/B167-Lamlib (antibody, human IgG1, lambda)
heavy: B1 heavy with R348P, D418K
light: B1 light
notes: copies: 2 + 2

Target: human FcRn (human, UniProt P55899 24-290; P61769 21-119, limits assumed)
Assay: SPR 25C pH 6.0, steady state;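 also: antibody captured on chip via anti-human Fab-lambda ligand, human FcRn injected as analyte in 50 mM phosphate buffer with 150 mM NaCl and P20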
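For binding per 1RU of antibody in this document: biacore SPR with antibody captured on an anti-human Fab lambda chip, human FcγR injected at 1000 nM (FcγRIa at 8 nM) in pH 7.4 phosphate buffer.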
Description: Biacore T200 (GE Healthcare) was used to assess the binding activity to human FcRn. Measurement was performed at 25° C. using 50 mM phosphate, 150 mM NaCl, 0.05 w/v %-P20, pH 6.0 as buffer. […] About 400 RU of antibody was captured using a sensor chip immobilized with CaptureSelect™ Human Fab-lambda Kinetics Biotin Conjugate (Thermo Fisher Scientific) as a molecule for ligand capturing, followed by the binding of human FcRn diluted in measuring buffer. The activity of the respective antibodies to bind FcRn was assessed by calculating KD (mol/L) by the steady-state model using Biacore T200 Evaluation Software 2.0.

Row | Kd [nM] | Binder
1 | 1090 | B1
2 | 1000 | B2
3 | 1210 | B3
4 | 1100 | B4
5 | 1130 | B5
6 | 956 | B6
7 | 1490 | B7
8 | 1110 | B8
9 | 1180 | B9
10 | 1460 | B10

Target: T4, hFcgRIa (human, UniProt P12314 16-292)
T4 construct: extracellular domain; also called human FcγRIa; FcγRI
Assay: SPR 25C
Description: (§1) Biacore T200 (GE Healthcare) was used to evaluate the binding activity to the respective human Fcγ receptor (hereafter referred to as FcγR). Measurement was performed at 25° C. using 50 mM phosphate, 150 mM NaCl, 0.05 w/v %-P20, pH 7.4 as buffer. About 1000 RU of antibody was captured using a sensor chip immobilized with CaptureSelect™ Human Fab-lambda Kinetics Biotin Conjugate (Thermo Fisher Scientific) as a molecule for ligand capturing. Human FcγR was diluted to 8 nM for FcγRIa and 1000 nM for other FcγR in the measurement buffer, and it was interacted to the captured antibody. The binding activity of each antibody to FcγR was assessed by calculating the binding amount of FcγR (RU) per unit amount of antibody using Biacore T200 Evaluation Software 2.0.

T4 sequence (P12314 16-292): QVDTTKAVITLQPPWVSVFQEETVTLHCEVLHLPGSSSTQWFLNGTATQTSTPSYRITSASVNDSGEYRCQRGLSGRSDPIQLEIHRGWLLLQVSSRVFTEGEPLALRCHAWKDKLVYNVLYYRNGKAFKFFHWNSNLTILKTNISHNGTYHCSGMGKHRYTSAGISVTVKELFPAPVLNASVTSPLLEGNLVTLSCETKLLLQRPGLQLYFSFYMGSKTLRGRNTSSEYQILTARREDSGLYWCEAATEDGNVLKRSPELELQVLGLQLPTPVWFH

Row | binding per 1RU of antibody [RU] | Binder
11 | 0.0018 | B1
12 | 0.0019 | B2
13 | 0.0011 | B3
14 | 0.0446 | B4
15 | 0.0013 | B5
16 | 0.0395 | B6
17 | 0.0396 | B7
18 | 0.0018 | B8
19 | 0.0429 | B9
20 | 0.0016 | B10

Target: T5, hFcgRIIIaF (human, UniProt P08637 17-208)
T5 construct: extracellular domain; also called human FcγRIIIa allotype F158
Assay: SPR 25C
Description: as §1

T5 sequence (P08637 17-208): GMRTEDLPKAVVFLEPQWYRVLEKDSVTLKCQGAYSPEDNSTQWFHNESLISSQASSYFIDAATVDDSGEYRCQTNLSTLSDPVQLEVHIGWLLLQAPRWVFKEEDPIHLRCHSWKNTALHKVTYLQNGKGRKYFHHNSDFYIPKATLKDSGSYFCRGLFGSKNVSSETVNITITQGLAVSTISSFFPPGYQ

Row | binding per 1RU of antibody [RU] | Binder
21 | 0.0008 | B1
22 | 0.001 | B2
23 | 0.0001 | B3
24 | 0.0009 | B4
25 | 0.0007 | B5
26 | 0.0011 | B6
27 | 0.0003 | B7
28 | 0.0012 | B8
29 | 0.0011 | B9
30 | 0.001 | B10

Target: T6, hFcgRIIIaV (human, UniProt P08637 17-208)
T6 construct: extracellular domain; also called human FcγRIIIa allotype V158
Assay: SPR 25C
Description: as §1

T6 sequence (P08637 17-208 F176V): as the sequence (P08637 17-208) above, with F160V counted along it

Row | binding per 1RU of antibody [RU] | Binder
31 | 0.0013 | B1
32 | 0.001 | B2
33 | 0.0001 | B3
34 | 0.0022 | B4
35 | 0.0005 | B5
36 | 0.0023 | B6
37 | 0.0014 | B7
38 | 0.0013 | B8
39 | 0.0025 | B9
40 | 0.0013 | B10

Target: T1, hFcgRIIb
Assay: SPR 25C
Description: as §1

Row | binding per 1RU of antibody [RU] | Binder
41 | 0.0531 | B1
42 | 0.0292 | B2
43 | 0.0339 | B3
44 | 0.0433 | B4
45 | 0.035 | B5
46 | 0.0399 | B6
47 | 0.0393 | B7
48 | 0.054 | B8
49 | 0.0419 | B9
50 | 0.0465 | B10

Target: T2, hFcgRIIaH
Assay: SPR 25C
Description: as §1

Row | binding per 1RU of antibody [RU] | Binder
51 | 0.0535 | B1
52 | 0.0314 | B2
53 | 0.0349 | B3
54 | 0.0571 | B4
55 | 0.0371 | B5
56 | 0.0529 | B6
57 | 0.0522 | B7
58 | 0.0542 | B8
59 | 0.0552 | B9
60 | 0.0454 | B10

Target: T3, hFcgRIIaR
Assay: SPR 25C
Description: as §1

Row | binding per 1RU of antibody [RU] | Binder
61 | 0.0542 | B1
62 | 0.0299 | B2
63 | 0.0349 | B3
64 | 0.0376 | B4
65 | 0.0371 | B5
66 | 0.0331 | B6
67 | 0.0327 | B7
68 | 0.0554 | B8
69 | 0.0361 | B9
70 | 0.0446 | B10

Target: T4, hFcgRIa
Assay: SPR 25C; relative to A375-G1T3/B167-Lamlib;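 also: SPR with antibody captured on an anti-human Fab-lambda chip, human FcγR analyte at 8 nM for FcγRIa or 1000 nM for the others, pH 7.4, FcγR RU per captured antibody unit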
Description: as §1

Row | relative binding amount | Binder
71 | 0.02 | B1
72 | 0.02 | B2
73 | 0.01 | B3
74 | 0.55 | B4
75 | 0.02 | B5
76 | 0.49 | B6
77 | 0.49 | B7
78 | 0.02 | B8
79 | 0.53 | B9
80 | 0.02 | B10

Target: T5, hFcgRIIIaF
Assay: SPR 25C; relative to A375-G1T3/B167-Lamlib;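 also: SPR with antibody captured on an anti-human Fab-lambda chip, human FcγR analyte at 8 nM for FcγRIa or 1000 nM for the others, pH 7.4, FcγR RU per captured antibody unit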
Description: as §1

Row | relative binding amount | Binder
81 | 0.04 | B1
82 | 0.05 | B2
83 | 0 | B3
84 | 0.04 | B4
85 | 0.03 | B5
86 | 0.05 | B6
87 | 0.01 | B7
88 | 0.06 | B8
89 | 0.05 | B9
90 | 0.05 | B10

Target: T6, hFcgRIIIaV
Assay: SPR 25C; relative to A375-G1T3/B167-Lamlib;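 also: SPR with antibody captured on an anti-human Fab-lambda chip, human FcγR analyte at 8 nM for FcγRIa or 1000 nM for the others, pH 7.4, FcγR RU per captured antibody unit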
Description: as §1

Row | relative binding amount | Binder
91 | 0.02 | B1
92 | 0.01 | B2
93 | 0 | B3
94 | 0.03 | B4
95 | 0.01 | B5
96 | 0.03 | B6
97 | 0.02 | B7
98 | 0.02 | B8
99 | 0.04 | B9
100 | 0.02 | B10

Target: T1, hFcgRIIb
Assay: SPR 25C; relative to A375-G1T3/B167-Lamlib;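 also: SPR with antibody captured on an anti-human Fab-lambda chip, human FcγR analyte at 8 nM for FcγRIa or 1000 nM for the others, pH 7.4, FcγR RU per captured antibody unit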
Description: as §1

Row | relative binding amount | Binder
101 | 4.85 | B1
102 | 2.67 | B2
103 | 3.1 | B3
104 | 3.95 | B4
105 | 3.2 | B5
106 | 3.64 | B6
107 | 3.59 | B7
108 | 4.93 | B8
109 | 3.82 | B9
110 | 4.24 | B10

Target: T2, hFcgRIIaH
Assay: SPR 25C; relative to A375-G1T3/B167-Lamlib
Description: as §1

Row | relative binding amount | Binder
111 | 0.94 | B1
112 | 0.55 | B2
113 | 0.62 | B3
114 | 1.01 | B4
115 | 0.65 | B5
116 | 0.93 | B6
117 | 0.92 | B7
118 | 0.96 | B8
119 | 0.97 | B9
120 | 0.8 | B10

Target: T3, hFcgRIIaR
Assay: SPR 25C; relative to A375-G1T3/B167-Lamlib
Description: as §1

Row | relative binding amount | Binder
121 | 1.17 | B1
122 | 0.64 | B2
123 | 0.75 | B3
124 | 0.81 | B4
125 | 0.8 | B5
126 | 0.71 | B6
127 | 0.71 | B7
128 | 1.2 | B8
129 | 0.78 | B9
130 | 0.96 | B10

From patent US20210324099A1 (Chugai, published 2021)
